US12391751B2, “Antibody against advanced glycation end products and use thereof” (Bloom Technology Corporation, priority 2018, dated 2025)

Experiments:
A-peak-BSA = A-peak-BSA (Bos taurus, UniProt P02769); assay: Suppression test of DAB oxidation of A-peak-BSA (Example 32); format: biochemical; conditions: PB-1 1.8 mg/mL; A-peak-BSA 2 mg/mL; white LED 3000 lux overnight
Experimental: Diaminobenzidine (DAB, Dojindo Laboratories) was prepared into 5 mg/mL in a PBS solution. A-peak-BSA (2 mg/mL, PBS solution) was prepared in the same way as in Example 24. 10 μL of the DAB solution was added to a 0.6 mL microtube (Watson), and 100 μL of PBS, the PB-1 antibody (1.8 mg/mL), or a mouse IgG isotype control (Ctrl-mIgG, Thermo Fisher Scientific Inc.) was further added thereto. After stirring with a vortex mixer, 10 μL of the A-peak-BSA solution was added thereto. These solutions were stirred with a vortex mixer and then irradiated overnight with white LED (3000 lux). The solutions thus irradiated with light were stirred with a vortex mixer, then spun down, and recovered at 100 μL/well into Violamo 96-well plate (AS ONE Corp.).
Absorbance at a wavelength of 460 nm was measured with a microplate reader (Cytation 5, BioTek Instrument Inc.) to detect oxidized DAB. The ordinate of the graph depicts a relative value to oxidized DAB detected in the antibody-untreated group (PBS addition group).

[1] = Reactivity of PB-1 with known AGEs by competitive ELISA (Example 31); format: binding; conditions: immobilized A-peak-BSA
Experimental: Competitive ELISA was conducted using the reagents described in Example 13. A solution of A-peak-BSA prepared into 1 μg/mL in a coating solution was added at 100 μL/well to a 96-well microtiter plate (Costar) and incubated overnight at 4° C.
Each well after the immobilization treatment was washed three times with a washing solution (300 μL), and a blocking solution (200 μL) was added thereto and left at room temperature for 1 hour.
GAL691 (prepared in Example 16), GLAP (prepared in Example 12), Lys-hydroxy-triosidine (prepared in Example 17), GA-pyridine (prepared in Example 28), GOLD (prepared in Example 29), and Z-Lys were each dissolved in a phosphate buffer solution (0.2 M, pH 7.4) to prepare a 100 mM solution. Then, a 10 mM solution was prepared by dilution 10-fold with a diluting solution containing BSA (1 mg/mL, FUJIFILM Wako Pure Chemical Corp.). Sample solutions of 4-fold dilution series of 0.04, 0.16, 0.63, and 2.5 mM were further prepared with a diluting solution containing a 10% (v/v) phosphate buffer solution and 1 mg/mL BSA. Ten-fold dilutions of a phosphate buffer solution with a diluting solution containing 1 mg/mL BSA were prepared as blank solutions containing no sample in the same way as above. A 0.1 μg/mL solution of the PB-1 antibody was prepared with a diluting solution containing 1 mg/mL BSA.
Each well treated with the blocking solution was washed three times with a washing solution (300 μL), and the sample solutions of 4-fold dilution series (50 μL each) and the PB-1 antibody dilution solution (50 μL) were added thereto, stirred with a plate mixer for 2 minutes, and then incubated at room temperature for 1 hour.
After the competitive reaction, each well was washed three times with a washing solution (300 μL), and peroxidase-labeled anti-mouse IgG (H+L) polyclonal antibody, F(ab′)2 fragment (Kirkegaard & Perry Laboratories, Inc.) diluted into 0.05 μg/mL with a diluting solution containing 1 mg/mL BSA was added at 100 μL/well and left standing at room temperature for 1 hour.
After washing three times with a washing solution (300 μL), a substrate solution (ELISA POD substrate TMB kit (Popular), Nacalai Tesque, Inc.) was added at 100 μL/well and incubated at room temperature for 10 minutes under light shielding. Then, color development was terminated by the addition of 2 N sulfuric acid (50 μL).
Absorbance was measured at a dominant wavelength of 450 nm and a sub-wavelength of 650 nm with a microplate reader (Cytation 5, BioTek Instrument Inc.), and the absorbance at the sub-wavelength was subtracted from the absorbance at the dominant wavelength. Change in the absorbance of GAL691, GLAP, Lys-hydroxy-triosidine, GA-pyridine, GOLD, and Z-Lys was indicated as relative values to the absorbance of the blank solution.

CML-AGEs-BSA = CML-AGEs-BSA (Bos taurus, UniProt P02769); assay: Specificity of PB-1 by competitive ELISA (Example 30); format: binding; conditions: A-peak-BSA or Glycer-AGEs-BSA immobilized, competitor 10 μg/mL, PB-1 0.05 μg/mL
Experimental: A-peak-BSA or Glycer-AGEs-BSA prepared into a concentration of 1 μg/mL with a coating solution (Example 13) was added at 100 μL/well to a 96-well microtiter plate (Costar) and immobilized overnight at 4° C.
The plate was washed three times with PBS containing 0.05% (v/v) Tween 20 (PBS-T) and then blocked with PBS-T containing 0.5% (w/v) gelatin for 1 hour.
Bovine serum albumin (BSA), BSA containing AGEs derived from glucose (Glu-AGEs-BSA), BSA containing AGEs derived from fructose (Fru-AGEs-BSA), BSA containing AGEs derived from glycolaldehyde (Glycol-AGEs-BSA), BSA containing AGEs derived from glyceraldehyde (Glycer-AGEs-BSA), BSA containing NE-carboxyethyllysine (CEL-AGEs-BSA), BSA containing NE-carboxymethyllysine (CML-AGEs-BSA), BSA containing AGEs derived from glyoxal (GO-AGEs-BSA), BSA containing AGEs derived from methylglyoxal (MGO-AGEs-BSA), and A-peak-BSA diluted into 10 μg/mL with PBS-T containing 0.1% (w/v) gelatin were each added at 50 μL/well to the antigen-immobilized plate, and the PB-1 antibody diluted into 0.05 μg/mL with PBS-T containing 0.1% (w/v) gelatin was further added at 50 μL/well, stirred with a plate mixer, and then left standing at room temperature for 1 hour.
After washing, peroxidase-labeled anti-mouse IgG (H+L) polyclonal antibody, F(ab′)2 fragment (Kirkegaard & Perry Laboratories, Inc.) diluted into 0.05 μg/mL with PBS-T containing 0.1% (w/v) gelatin was added at 100 μL/well and left standing at room temperature for 1 hour.
After washing, ELISA POD substrate TMB kit (Nacalai Tesque, Inc.) was added at 100 μL/well and left standing at room temperature in the dark. Ten minutes later, color development was terminated by the addition of 2 N sulfuric acid (50 μL/well). Absorbance was measured at a dominant wavelength of 450 nm and a sub-wavelength of 650 nm with a microplate reader (Cytation 5, BioTek Instrument Inc.), and the absorbance at the sub-wavelength was subtracted from the absorbance at the dominant wavelength.
The ordinate of the graph depicts change in absorbance relative to that of control BSA defined as 1. When A-peak-BSA and Glycer-AGEs-BSA were immobilized, the novel monoclonal antibody PB-1 was also positive to Glycol-AGEs-BSA, Glycer-AGEs-BSA, and A-peak-BSA and negative to Glu-AGEs-BSA, Fru-AGEs-BSA, CEL-AGEs-BSA, CML-AGEs-BSA, GO-AGEs-BSA, and MGO-AGEs-BSA in terms of specificity.

Sequence of CML-AGEs-BSA (P02769 25-607): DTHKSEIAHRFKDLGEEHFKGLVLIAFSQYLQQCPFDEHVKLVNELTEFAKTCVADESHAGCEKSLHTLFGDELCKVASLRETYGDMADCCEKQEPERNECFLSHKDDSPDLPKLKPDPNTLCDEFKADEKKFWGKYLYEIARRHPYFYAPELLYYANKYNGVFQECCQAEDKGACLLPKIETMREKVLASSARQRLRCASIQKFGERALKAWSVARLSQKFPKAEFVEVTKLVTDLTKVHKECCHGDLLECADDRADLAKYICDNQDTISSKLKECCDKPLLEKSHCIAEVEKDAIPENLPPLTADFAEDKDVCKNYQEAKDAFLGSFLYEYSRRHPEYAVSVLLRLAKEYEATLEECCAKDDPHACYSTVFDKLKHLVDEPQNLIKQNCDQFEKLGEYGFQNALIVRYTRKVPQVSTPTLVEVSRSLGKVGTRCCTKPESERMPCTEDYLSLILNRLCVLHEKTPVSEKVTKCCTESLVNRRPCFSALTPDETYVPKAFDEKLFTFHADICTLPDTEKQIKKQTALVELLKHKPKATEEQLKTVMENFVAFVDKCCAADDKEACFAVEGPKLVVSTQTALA
Sequence of A-peak-BSA (P02769 25-607): as above

oxidized DAB (absorbance at 460 nm) compared with PBS or Ctrl-mIgG treatment group (A-peak-BSA): largely decreased
specificity: reactivity with CML-AGEs-BSA (CML-AGEs-BSA): negative
B1: PB-1: mouse monoclonal antibody raised against A-peak-BSA; heavy-chain variable region SEQ ID NO 18, light-chain variable region SEQ ID NO 22 (antibody, listed as Mus musculus, V domains shown)
VH: EVRLQQSGPELVKPGTSVKISCKASGYSFTGYYMHWVKQSPVKSLEWIGRIIPYNGATSYNQNFKDKASLTVDKSSRTAYMDLHSLTSEDSAVYYCARSRYYGRAPYYFDYWGQGTTLTVSS
VL: DVVVTQTPLSLPVSLGDQASISCRSSQSIVHSNGNTYLEWYLQKPGQSPKLLIYKVSNRFSGVPDRISGSGSGTDFTLKISRVEAGDLGVYSCFQGSHVPFTFGSGTKLEIK
recognition of GA-pyridine [1]: does not recognize
recognition of GLAP [1]: does not recognize
recognition of GOLD [1]: does not recognize
recognition of Lys-hydroxy-triosidine [1]: does not recognize
